Data from patent publication US20260234245A1.

Tests used:
[1] = target: human L1CAM on the surface of human cancer cell lines (human) (UniProt P32004); test: flow cytometry on HeLa cells, PE-labeled antibody, mean of triplicates
[2] = target: human L1CAM on the surface of human cancer cell lines (human) (UniProt P32004); test: flow cytometry on Panc-1 cells, PE-labeled antibody, mean of triplicates
[3] = target: human L1CAM on the surface of human cancer cell lines (human) (UniProt P32004); test: flow cytometry on SKOV3 cells, PE-labeled antibody, mean of triplicates
[4] = target: human L1CAM on the surface of human cancer cell lines (human) (UniProt P32004); test: flow cytometry on PC-03 cells, against PE-labeled isotype control MOPC-173
[5] = target: human L1CAM on the surface of human cancer cell lines (human) (UniProt P32004); test: flow cytometry on SKOV3 cells, against PE-labeled isotype control MOPC-173
[6] = target: human L1CAM on the surface of human cancer cell lines (human) (UniProt P32004); test: flow cytometry on HeLa cells, against PE-labeled isotype control MOPC-173
[7] = target: human L1CAM on the surface of human cancer cell lines (human) (UniProt P32004); test: flow cytometry on Panc-1 cells, against PE-labeled isotype control MOPC-173
[8] = target: human L1CAM on the surface of human cancer cell lines (human) (UniProt P32004); test: flow cytometry on PC-03 cells, PE-labeled antibody, mean of triplicates
[9] = target: human L1CAM on the surface of human cancer cell lines (human) (UniProt P32004); test: flow cytometry on Panc-1 cells, PE-labeled isotype control (background), mean of triplicates
[10] = target: human L1CAM on the surface of human cancer cell lines (human) (UniProt P32004); test: flow cytometry on SKOV3 cells, PE-labeled isotype control (background), mean of triplicates
[11] = target: human L1CAM on the surface of human cancer cell lines (human) (UniProt P32004); test: flow cytometry on HeLa cells, PE-labeled isotype control (background), mean of triplicates
[12] = target: human L1CAM on the surface of human cancer cell lines (human) (UniProt P32004); test: flow cytometry on PC-03 cells, PE-labeled isotype control (background), mean of triplicates

Sequence of human L1CAM on the surface of human cancer cell lines (human) (P32004 20-1257): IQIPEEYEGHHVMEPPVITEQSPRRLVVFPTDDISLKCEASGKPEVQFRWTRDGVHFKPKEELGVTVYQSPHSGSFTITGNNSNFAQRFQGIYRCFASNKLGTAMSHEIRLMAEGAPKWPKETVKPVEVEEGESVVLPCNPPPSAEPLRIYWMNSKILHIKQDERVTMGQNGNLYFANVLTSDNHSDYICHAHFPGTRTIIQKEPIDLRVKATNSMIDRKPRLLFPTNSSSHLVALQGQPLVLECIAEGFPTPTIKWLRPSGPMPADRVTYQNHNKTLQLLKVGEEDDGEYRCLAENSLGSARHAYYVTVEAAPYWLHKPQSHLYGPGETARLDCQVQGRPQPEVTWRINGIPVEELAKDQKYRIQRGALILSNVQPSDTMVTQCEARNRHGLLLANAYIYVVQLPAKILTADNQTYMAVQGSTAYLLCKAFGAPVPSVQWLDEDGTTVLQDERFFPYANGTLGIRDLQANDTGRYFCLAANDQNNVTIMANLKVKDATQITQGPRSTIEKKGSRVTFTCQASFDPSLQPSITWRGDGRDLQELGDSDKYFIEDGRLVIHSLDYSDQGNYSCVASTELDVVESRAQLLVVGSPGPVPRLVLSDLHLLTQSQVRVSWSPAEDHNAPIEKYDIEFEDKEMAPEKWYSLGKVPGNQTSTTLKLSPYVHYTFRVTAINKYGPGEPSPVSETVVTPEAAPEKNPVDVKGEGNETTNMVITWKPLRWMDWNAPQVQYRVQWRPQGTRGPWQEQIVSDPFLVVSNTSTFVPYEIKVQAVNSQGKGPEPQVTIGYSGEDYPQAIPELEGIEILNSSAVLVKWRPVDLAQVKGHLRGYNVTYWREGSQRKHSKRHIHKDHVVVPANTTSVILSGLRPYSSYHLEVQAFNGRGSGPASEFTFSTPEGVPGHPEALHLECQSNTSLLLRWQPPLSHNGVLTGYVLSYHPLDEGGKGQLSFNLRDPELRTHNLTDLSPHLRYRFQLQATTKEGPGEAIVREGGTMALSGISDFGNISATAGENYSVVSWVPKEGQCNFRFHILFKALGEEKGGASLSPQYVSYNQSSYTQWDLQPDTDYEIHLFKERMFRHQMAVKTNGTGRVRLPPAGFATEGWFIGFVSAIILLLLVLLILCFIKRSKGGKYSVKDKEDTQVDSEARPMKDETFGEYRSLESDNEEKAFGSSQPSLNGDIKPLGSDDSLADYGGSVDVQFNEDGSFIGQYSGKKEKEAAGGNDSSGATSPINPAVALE

Substance | MFI anti-L1CAM antibody [1] [MFI] | MFI anti-L1CAM antibody [2] [MFI] | MFI anti-L1CAM antibody [3] [MFI] | Fold increase in MFI (anti-L1CAM vs isotype) [4] [fold] | Fold increase in MFI (anti-L1CAM vs isotype) [5] [fold] | Fold increase in MFI (anti-L1CAM vs isotype) [6] [fold] | Fold increase in MFI (anti-L1CAM vs isotype) [7] [fold] | MFI anti-L1CAM antibody [8] [MFI] | MFI isotype control antibody [9] [MFI] | MFI isotype control antibody [10] [MFI] | MFI isotype control antibody [11] [MFI] | MFI isotype control antibody [12] [MFI]
phycoerythrin (PE)-labeled anti-human L1CAM antibody (clone L1-OV198.5, BioLegend) | 1.22e+06 | 183000 | 1.5e+06 | 5 | 173 | 133 | 14 | 46400 |  |  |  | 
PE-labeled mouse IgG2a (κ) (clone MOPC-173, BioLegend) (antibody) |  |  |  |  |  |  |  |  | 13100 | 8680 | 9140 | 9420
